The source of these data is patent US20160114035A1 (published 2016).

Like-named read-outs stand apart in the source and are kept apart here.

What all share (test): binding to purified HLA
Assay [1] addresses DRB4*0101.
The target in assay [2] is DRB5*0101.
Assay [3] has as its target DRB1*0901.
Assay [4] has as its target DRB1*0404.
The target in assay [5] is DRB1*0802.
Assay [6] addresses DRB1*0701.
Assay [7] concerns the target DRB1*1302.
Assay [8] concerns the target DRB1*0301.
Assay [9] addresses DRB1*1101.
Assay [10] concerns the target DRB1*0405.
The target in assay [11] is DRB1*1501.
In assay [12] the target is DRB1*0401.
Assay [13] has as its target DRB1*0101.
The target in assay [14] is DRB4*0101. This is another data set of the same source.
Assay [15] addresses DRB5*0101. The source holds these as a separate data set.
In assay [16] the target is DRB1*0901. The source holds these as a separate data set.
The target of assay [17] is DRB1*0404. The source holds these as a separate data set.
Assay [18] concerns the target DRB1*0802. This is another data set of the same source.
In assay [19] the target is DRB1*0701. This is another data set of the same source.
The target in assay [20] is DRB1*1302. This is another data set of the same source.
For assay [21], the target named is DRB1*0301. This is another data set of the same source.
For assay [22], the target named is DRB1*1101. This is another data set of the same source.
In assay [23] the target is DRB1*0405. This is another data set of the same source.
Assay [24] deals with DRB1*1501. This is another data set of the same source.
Assay [25] has as its target DRB1*0401. This is another data set of the same source.
For assay [26], the target named is DRB1*0101. This is another data set of the same source.

What is called IC50 is the concentration that inhibits the measured activity by half.

B1: Y4.N9.H12 (peptide)
peptide: AAAYFVAANTLHAAA
Take B1: the IC50 worked out at 703 nM with DRB4*0101 [1]; 16 nM in the assay with DRB5*0101 [2]; 21 nM with DRB1*0901 [3]; 5.2 nM in the assay with DRB1*0404 [4]; 12 nM in the assay with DRB1*0802 [5]; 49 nM with DRB1*0701 [6]. Also, the IC50 in the assay with DRB1*1302 [7] is 54 nM; with DRB1*0301 [8], 130 nM; in the assay with DRB1*1101 [9], 14 nM; with DRB1*0405 [10] it was 13 nM; in the assay with DRB1*1501 [11], 53 nM; with DRB1*0401 [12] it was 3.3 nM. In addition, the IC50 with DRB1*0101 [13] is 4.5 nM.

B2: H4.F9.E14 (peptide)
peptide: AAAHFVAAFTLKAEA
In the case of B2, the IC50 with DRB4*0101 [14] amounted to 526 nM; with DRB5*0101 [15], 19 nM; in the assay with DRB1*0901 [16], 46 nM; in the assay with DRB1*0404 [17], 8.1 nM; with DRB1*0802 [18], 19 nM; with DRB1*0701 [19] it was 49 nM. For the same molecule, the half-maximal inhibitory concentration (IC50) in the assay with DRB1*1302 [20] came out at 801 nM; with DRB1*0301 [21], 855 nM; in the assay with DRB1*1101 [22], 41 nM; with DRB1*0405 [23], 8.1 nM; with DRB1*1501 [24], 31 nM; with DRB1*0401 [25], 6.4 nM. This molecule also yielded an IC50 with DRB1*0101 [26] of 6.8 nM.

B3: W4.N9.H12 (peptide)
peptide: AAAWFVAANTLHAAA
Turning to B3, the IC50 with DRB4*0101 [1] is 606 nM; in the assay with DRB5*0101 [2], 22 nM; in the assay with DRB1*0901 [3] it was 33 nM; with DRB1*0404 [4], 5.5 nM; in the assay with DRB1*0802 [5] it was 8.6 nM; with DRB1*0701 [6], 43 nM. The IC50 with DRB1*1302 [7] amounted to 38 nM; with DRB1*0301 [8], 174 nM; with DRB1*1101 [9], 16 nM; in the assay with DRB1*0405 [10], 21 nM; with DRB1*1501 [11], 101 nM; with DRB1*0401 [12] it was 2.9 nM. The IC50 in the assay with DRB1*0101 [13] came out at 3.8 nM.

B4: SEQ ID NO: 4 (peptide)
peptide: AAAKFVAAWTLKAAA
Turning to B4, the IC50 stood at 207 nM with DRB4*0101 [1]; 5.4 nM in the assay with DRB5*0101 [2]; 28 nM in the assay with DRB1*0901 [3]; 2.9 nM in the assay with DRB1*0404 [4]; 5.2 nM with DRB1*0802 [5]; 49 nM with DRB1*0701 [6]. In addition, the half-maximal inhibitory concentration (IC50) with DRB1*1302 [7] is 648 nM; in the assay with DRB1*0301 [8] it was 209 nM; with DRB1*1101 [9], 11 nM; with DRB1*0405 [10], 25 nM; with DRB1*1501 [11] it was 9.8 nM; in the assay with DRB1*0401 [12], 2.6 nM. Besides, in the assay with DRB1*0101 [13], the IC50 was 3.3 nM.

B5: F4.N9.H12 (peptide)
peptide: AAAFFVAANTLHAAA
For B5, the IC50 with DRB4*0101 [1] turned out to be 876 nM; in the assay with DRB5*0101 [2], 26 nM; with DRB1*0901 [3], 31 nM; with DRB1*0404 [4] it was 4.1 nM; with DRB1*0802 [5], 28 nM; with DRB1*0701 [6] it was 82 nM. Moreover, the IC50 in the assay with DRB1*1302 [7] came out at 64 nM; in the assay with DRB1*0301 [8], 286 nM; in the assay with DRB1*1101 [9], 42 nM; in the assay with DRB1*0405 [10], 27 nM; in the assay with DRB1*1501 [11] it was 70 nM; with DRB1*0401 [12], 3.8 nM. In addition, the IC50 in the assay with DRB1*0101 [13] worked out at 6.5 nM.

B6: F4.N9.D14 (peptide)
peptide: AAAFFVAANTLKADA
For B6, the IC50 stood at 5520 nM in the assay with DRB4*0101 [1]; 4.4 nM in the assay with DRB5*0101 [2]; 18 nM with DRB1*0901 [3]; 4.5 nM in the assay with DRB1*0404 [4]; 16 nM in the assay with DRB1*0802 [5]; 74 nM in the assay with DRB1*0701 [6]. In addition, the IC50 with DRB1*1302 [7] is 187 nM; with DRB1*0301 [8] it was 140 nM; with DRB1*1101 [9], 46 nM; in the assay with DRB1*0405 [10], 9.5 nM; in the assay with DRB1*1501 [11], 103 nM; with DRB1*0401 [12], 4 nM. The molecule also displayed an IC50 with DRB1*0101 [13] of 3.4 nM.

B7: E4.Y9.H12 (peptide)
peptide: AAAEFVAAYTLHAAA
In the case of B7, the IC50 with DRB4*0101 [14] came to 448 nM; with DRB5*0101 [15], 52 nM; with DRB1*0901 [16], 28 nM; in the assay with DRB1*0404 [17] it was 3.2 nM; with DRB1*0802 [18] it was 13 nM; in the assay with DRB1*0701 [19], 161 nM. The IC50 was found to be 1450 nM with DRB1*1302 [20]; 144 nM with DRB1*0301 [21]; 27 nM with DRB1*1101 [22]; 17 nM with DRB1*0405 [23]; 6.9 nM with DRB1*1501 [24]; 2.3 nM with DRB1*0401 [25]. Besides, in the assay with DRB1*0101 [26], the half-maximal inhibitory concentration (IC50) stood at 3.9 nM.

B8: E4.H12 (peptide)
peptide: AAAEFVAAWTLHAAA
For the molecule B8, the IC50 with DRB4*0101 [14] was found to be 350 nM; with DRB5*0101 [15], 48 nM; with DRB1*0901 [16], 44 nM; in the assay with DRB1*0404 [17], 4.1 nM; in the assay with DRB1*0802 [18], 24 nM; with DRB1*0701 [19], 97 nM. Further, the IC50 with DRB1*1302 [20] is 1150 nM; with DRB1*0301 [21], 134 nM; with DRB1*1101 [22], 38 nM; in the assay with DRB1*0405 [23] it was 27 nM; with DRB1*1501 [24], 51 nM; with DRB1*0401 [25], 3.1 nM. Moreover, the half-maximal inhibitory concentration (IC50) in the assay with DRB1*0101 [26] came to 5.1 nM.

B9: Y4.F9.H12 (peptide)
peptide: AAAYFVAAFTLHAAA
On to B9, for which the IC50 with DRB4*0101 [1] was 81 nM; in the assay with DRB5*0101 [2], 18 nM; in the assay with DRB1*0901 [3], 13 nM; with DRB1*0404 [4] it was 0.67 nM; with DRB1*0802 [5] it was 5.9 nM; with DRB1*0701 [6], 78 nM. In addition, the half-inhibitory concentration (IC50) with DRB1*1302 [7] is 2560 nM; with DRB1*0301 [8] it was 126 nM; with DRB1*1101 [9], 17 nM; with DRB1*0405 [10] it was 4.4 nM; in the assay with DRB1*1501 [11], 16 nM; in the assay with DRB1*0401 [12], 1 nM. Moreover, the IC50 in the assay with DRB1*0101 [13] was found to be 3.4 nM.

B10: H4.H12 (peptide)
peptide: AAAHFVAAWTLHAAA
B10: the IC50 with DRB4*0101 [1] is 267 nM; with DRB5*0101 [2] it was 23 nM; with DRB1*0901 [3], 21 nM; in the assay with DRB1*0404 [4], 2.5 nM; with DRB1*0802 [5] it was 9.3 nM; with DRB1*0701 [6], 53 nM. The half-inhibitory concentration (IC50) with DRB1*1302 [7] amounted to 1190 nM; in the assay with DRB1*0301 [8], 198 nM; with DRB1*1101 [9] it was 14 nM; in the assay with DRB1*0405 [10] it was 12 nM; in the assay with DRB1*1501 [11] it was 12 nM; with DRB1*0401 [12], 2.5 nM. In the assay with DRB1*0101 [13], the half-maximal inhibitory concentration (IC50) worked out at 4.2 nM.

B11: N4.Y9.H12 (peptide)
peptide: AAANFVAAYTLHAAA
As for B11, the IC50 with DRB4*0101 [14] was determined as 567 nM; with DRB5*0101 [15], 20 nM; with DRB1*0901 [16], 25 nM; with DRB1*0404 [17], 5.2 nM; in the assay with DRB1*0802 [18], 7.5 nM; with DRB1*0701 [19], 67 nM. For the same molecule, the half-inhibitory concentration (IC50) with DRB1*1302 [20] came to 1420 nM; with DRB1*0301 [21], 171 nM; in the assay with DRB1*1101 [22], 16 nM; with DRB1*0405 [23] it was 19 nM; in the assay with DRB1*1501 [24], 4.2 nM; with DRB1*0401 [25], 1.8 nM. The half-inhibitory concentration (IC50) with DRB1*0101 [26] is 2.7 nM.

B12: Y4.H12 (peptide)
peptide: AAAYFVAAWTLHAAA
Take B12: the IC50 with DRB4*0101 [1] amounted to 279 nM; with DRB5*0101 [2], 15 nM; with DRB1*0901 [3] it was 18 nM; in the assay with DRB1*0404 [4] it was 2.6 nM; in the assay with DRB1*0802 [5] it was 9.7 nM; with DRB1*0701 [6], 55 nM. Besides, the concentration for half-maximal inhibition (IC50) in the assay with DRB1*1302 [7] came to 1560 nM; in the assay with DRB1*0301 [8], 119 nM; with DRB1*1101 [9], 18 nM; in the assay with DRB1*0405 [10], 6.9 nM; in the assay with DRB1*1501 [11] it was 16 nM; in the assay with DRB1*0401 [12], 2.6 nM. Further, the 50% inhibitory concentration (IC50) with DRB1*0101 [13] amounted to 3.7 nM.
